# According to patent US20220064329A1 (Novo Nordisk, published 2022):
# Read-outs that look alike come from different tables or passages of the source.
# B1: biAb0095 (bispecific antibody, human IgG4 S228P, kappa)
# heavy 1: QVQLQESGPGLVKPSQTLSLTCTVSGYSISSDSAWSWIRQPPGKGLEWIGYIQYSGSTNYNPSLKSRVTISRDTSKNQFSLKLSSVTAADTAVYYCARSVNYYGNSFAVGYWGQGTLVTVSSASTKGPSVFPLAPCSRSTSESTAALGCLVKDYFPEPVTVSWNSGALTSGVHTFPAVLQSSGLYSLSSVVTVPSSSLGTKTYTCNVDHKPSNTKVDKRVESKYGPPCPPCPAPEFLGGPSVFLFPPKPKDTLMISRTPEVTCVVVDVSQEDPEVQFNWYVDGVEVHNAKTKPREEQFNSTYRVVSVLTVLHQDWLNGKEYKCKVSNKGLPSSIEKTISKAKGQPREPQVYTLPPSQEEMTKNQVSLTCLVKGFYPSDIAVEWESNGQPENNYKTTPPVLDSDGSFLLYSKLTVDKSRWQEGNVFSCSVMHEALHNHYTQKSLSLSLGK
# light 1: EIVLTQSPATLSLSPGERATLSCRASQGISDYLHWYQQKPGEAPRLLIKYTSQPATGIPARFSGSGSGTDFTLTISSLEPEDFAVYYCQNGHSFPLTFGQGTKLEIKRTVAAPSVFIFPPSDEQLKSGTASVVCLLNNFYPREAKVQWKVDNALQSGNSQESVTEQDSKDSTYSLSSTLTLSKADYEKHKVYACEVTHQGLSSPVTKSFNRGEC
# heavy 2: not shown
# light 2: DIVMTQTPLSSPVTLGQPASISCRSSQSLVHRNGNTYFHWLQQRPGQPPRLLIYKVSNRFSGVPDRFSGSGAGTDFTLKISRVEAEDVGVYYCSQSTHVPYTFGQGTKLEIKRTVAAPSVFIFPPSDEQLKSGTASVVCLLNNFYPREAKVQWKVDNALQSGNSQESVTEQDSKDSTYSLSSTLTLSKADYEKHKVYACEVTHQGLSSPVTKSFNRGEC
# notes: Duobody, constant domain type H (IgG4): anti-FVII(a) arm mAb0865, anti-TLT-1 arm mAb1047; also called mAb0865 x mAb1047
# B2: biAb0015 (bispecific antibody, human IgG4 S228P, kappa)
# heavy 1: QVQLQESGPGLVKPSQTLSLTCTVSGYSISSDSAWSWIRQPPGKGLEWIGYIQYSGSTNYNPSLKSRVTISRDTSKNQFSLKLSSVTAADTAVYYCARSVNYYGNSFAVGYWGQGTLVTVSSASTKGPSVFPLAPCSRSTSESTAALGCLVKDYFPEPVTVSWNSGALTSGVHTFPAVLQSSGLYSLSSVVTVPSSSLGTKTYTCNVDHKPSNTKVDKRVESKYGPPCPPCPAPEFLGGPSVFLFPPKPKDTLMISRTPEVTCVVVDVSQEDPEVQFNWYVDGVEVHNAKTKPREEQFNSTYRVVSVLTVLHQDWLNGKEYKCKVSNKGLPSSIEKTISKAKGQPREPQVYTLPPSQEEMTKNQVSLTCLVKGFYPSDIAVEWESNGQPENNYKTTPPVLDSDGSFLLYSKLTVDKSRWQEGNVFSCSVMHEALHNHYTQKSLSLSLGK
# light 1: EIVLTQSPATLSLSPGERATLSCRASQGISDYLHWYQQKPGEAPRLLIKYTSQPATGIPARFSGSGSGTDFTLTISSLEPEDFAVYYCQNGHSFPLTFGQGTKLEIKRTVAAPSVFIFPPSDEQLKSGTASVVCLLNNFYPREAKVQWKVDNALQSGNSQESVTEQDSKDSTYSLSSTLTLSKADYEKHKVYACEVTHQGLSSPVTKSFNRGEC
# heavy 2: not shown
# light 2: DIVMTQTPLSSPVTLGQPASISCRSSQSLVHRPGNTYFHWLQQRPGQPPRLLIYKVSNRFSGVPDRFSGSGAGTDFTLKISRVEAEDVGVYYCSQSTHVPYTFGQGTKLEIKRTVAAPSVFIFPPSDEQLKSGTASVVCLLNNFYPREAKVQWKVDNALQSGNSQESVTEQDSKDSTYSLSSTLTLSKADYEKHKVYACEVTHQGLSSPVTKSFNRGEC
# notes: Duobody, constant domain type H (IgG4): anti-FVII(a) arm mAb0865, anti-TLT-1 arm mAb1038; also called mAb0865 x mAb1038
# B3: biAb0001 (bispecific antibody, human IgG4 S228P, kappa)
# heavy 1: QVQLQESGPGLVKPSQTLSLTCTVSGYSISSDSAWSWIRQPPGKGLEWIGYIQYSGSTNYNPSLKSRVTISRDTSKNQFSLKLSSVTAADTAVYYCARSVNYYGNSFAVGYWGQGTLVTVSSASTKGPSVFPLAPCSRSTSESTAALGCLVKDYFPEPVTVSWNSGALTSGVHTFPAVLQSSGLYSLSSVVTVPSSSLGTKTYTCNVDHKPSNTKVDKRVESKYGPPCPPCPAPEFLGGPSVFLFPPKPKDTLMISRTPEVTCVVVDVSQEDPEVQFNWYVDGVEVHNAKTKPREEQFNSTYRVVSVLTVLHQDWLNGKEYKCKVSNKGLPSSIEKTISKAKGQPREPQVYTLPPSQEEMTKNQVSLTCLVKGFYPSDIAVEWESNGQPENNYKTTPPVLDSDGSFLLYSKLTVDKSRWQEGNVFSCSVMHEALHNHYTQKSLSLSLGK
# light 1: EIVLTQSPATLSLSPGERATLSCRASQGISDYLHWYQQKPGEAPRLLIKYTSQPATGIPARFSGSGSGTDFTLTISSLEPEDFAVYYCQNGHSFPLTFGQGTKLEIKRTVAAPSVFIFPPSDEQLKSGTASVVCLLNNFYPREAKVQWKVDNALQSGNSQESVTEQDSKDSTYSLSSTLTLSKADYEKHKVYACEVTHQGLSSPVTKSFNRGEC
# heavy 2: not shown
# light 2: DIVMTQTPLSSPVTLGQPASISCRSSQSLVHRQGNTYFHWLQQRPGQPPRLLIYKVSNRFSGVPDRFSGSGAGTDFTLKISRVEAEDVGVYYCSQSTHVPYTFGQGTKLEIKRTVAAPSVFIFPPSDEQLKSGTASVVCLLNNFYPREAKVQWKVDNALQSGNSQESVTEQDSKDSTYSLSSTLTLSKADYEKHKVYACEVTHQGLSSPVTKSFNRGEC
# notes: Duobody, constant domain type H (IgG4): anti-FVII(a) arm mAb0865, anti-TLT-1 arm mAb1076; also called anti-FVII(a)/anti-TLT-1 bispecific antibody; mAb0865 x mAb1076
# B4: biAb0090 (bispecific antibody, human IgG4 S228P, kappa)
# heavy 1: QVQLQESGPGLVKPSQTLSLTCTVSGYSISSDSAWSWIRQPPGKGLEWIGYIQYSGSTNYNPSLKSRVTISRDTSKNQFSLKLSSVTAADTAVYYCARSVNYYGNSFAVGYWGQGTLVTVSSASTKGPSVFPLAPCSRSTSESTAALGCLVKDYFPEPVTVSWNSGALTSGVHTFPAVLQSSGLYSLSSVVTVPSSSLGTKTYTCNVDHKPSNTKVDKRVESKYGPPCPPCPAPEFLGGPSVFLFPPKPKDTLMISRTPEVTCVVVDVSQEDPEVQFNWYVDGVEVHNAKTKPREEQFNSTYRVVSVLTVLHQDWLNGKEYKCKVSNKGLPSSIEKTISKAKGQPREPQVYTLPPSQEEMTKNQVSLTCLVKGFYPSDIAVEWESNGQPENNYKTTPPVLDSDGSFLLYSKLTVDKSRWQEGNVFSCSVMHEALHNHYTQKSLSLSLGK
# light 1: EIVLTQSPATLSLSPGERATLSCRASQGISDYLHWYQQKPGEAPRLLIKYTSQPATGIPARFSGSGSGTDFTLTISSLEPEDFAVYYCQNGHSFPLTFGQGTKLEIKRTVAAPSVFIFPPSDEQLKSGTASVVCLLNNFYPREAKVQWKVDNALQSGNSQESVTEQDSKDSTYSLSSTLTLSKADYEKHKVYACEVTHQGLSSPVTKSFNRGEC
# heavy 2: not shown
# light 2: DIVMTQTPLSSPVTLGQPASISCRSSQSLVHRNGNTYFHWLQQRPGQPPRLLIYKVSNRFSGVPDRFSGSGAGTDFTLKISRVEAEDVGVYYCSQSTHVPYTFGQGTKLEIKRTVAAPSVFIFPPSDEQLKSGTASVVCLLNNFYPREAKVQWKVDNALQSGNSQESVTEQDSKDSTYSLSSTLTLSKADYEKHKVYACEVTHQGLSSPVTKSFNRGEC
# notes: Duobody, constant domain type H (IgG4): anti-FVII(a) arm mAb0865, anti-TLT-1 arm mAb1049; also called mAb0865 x mAb1049
# Columns and labels:
# [1] = molecular target: T1, recombinant human activated FVII (FVIIa) (human, UniProt P08709 61-212; P08709 213-466, ten glutamate residues of the Gla domain may be gamma-carboxylated); assay: cell-based or functional assay
# T1 sequence 1: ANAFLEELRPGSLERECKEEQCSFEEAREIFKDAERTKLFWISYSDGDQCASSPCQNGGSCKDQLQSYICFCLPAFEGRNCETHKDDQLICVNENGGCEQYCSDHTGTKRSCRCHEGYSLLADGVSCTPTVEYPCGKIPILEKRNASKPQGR
# T1 sequence 2: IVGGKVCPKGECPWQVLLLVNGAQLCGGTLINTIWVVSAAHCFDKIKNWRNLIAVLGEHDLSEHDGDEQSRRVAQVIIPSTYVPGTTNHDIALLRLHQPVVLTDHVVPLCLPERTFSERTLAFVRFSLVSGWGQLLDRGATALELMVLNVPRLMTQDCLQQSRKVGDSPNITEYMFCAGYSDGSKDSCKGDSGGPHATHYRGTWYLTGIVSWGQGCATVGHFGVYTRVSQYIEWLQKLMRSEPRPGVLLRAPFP
# [2] = molecular target: T2, sTLT1 (SEQ ID No: 3 with six histidine residues added at the C-terminus) (human, UniProt Q86YW5 16-162); assay: dissociation constant listed with the stimulatory activities (SPR)
# T2 construct: Soluble TLT-1 used in SPR
# T2 sequence: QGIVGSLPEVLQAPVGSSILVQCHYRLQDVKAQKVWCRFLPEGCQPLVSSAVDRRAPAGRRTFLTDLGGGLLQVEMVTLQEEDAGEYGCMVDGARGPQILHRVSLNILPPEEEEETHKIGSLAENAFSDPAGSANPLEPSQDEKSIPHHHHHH
# [3] = molecular target: T1, recombinant human activated FVII (FVIIa); assay: as above
# [4] = molecular target: T2, sTLT1 (SEQ ID No: 3 with six histidine …); assay: KD (TLT-1) listed for the biAbs of Example 30 (SPR value of Table 21)
# Description: (§1) Binding of sTLT1 (corresponding to SEQ ID No: 3 with six histidine residues added at the C-terminus) to biAb from (Example 4) was probed by surface plasmon resonance (Biacore T200) at 25° C. Anti-human IgG was immobilised on a CM5 sensor chip (both supplied by GE Healthcare) using standard amine coupling chemistry. Purified biAbs according to Table 21 (1 nM) were injected at a flow rate of 10 μl/min for 1 min. Subsequently, sTLT1, between 0 and 60 μM, were injected at a flow rate of […] for 3 min to allow for binding to the biAb followed by a 3 min buffer injection allowing for dissociation from the biAb. The running buffer was prepared by diluting 10-fold the 10×HBS-P buffer (supplied by GE Healthcare) and supplemented with 1 mg/ml BSA and 5 mM CaCl₂) to give 10 mM HEPES, 150 mM NaCl, 0.05% v/v Polysorbate 20, pH 7.4, 5 mM CaCl₂), 1 mg/ml bovine serum albumin (BSA). The running buffer was also used for dilution of biAb and sTLT1 samples. Regeneration of the chip was achieved using recommended regeneration buffer consisted of 3M MgCl2 (supplied by GE Healthcare). Binding data were analysed according to a 1:1 model using BiaEvaluation 4.1 supplied by the manufacturer (Biacore AB, Uppsala, Sweden).
# [5] = molecular target: T2, sTLT1 (SEQ ID No: 3 with six histidine …); assay: SPR, Biacore T200, 25 C; biAb captured on anti-human IgG, sTLT1 injected; 1:1 model
# Description: as §1
# [6] = molecular target: T1, recombinant human activated FVII (FVIIa); assay: cell-based or functional assay; remark: listed apart in the source
binder,measurement,setting,value
B1,"Stimulation (fold): FXa generated by FVIIa with lipidated TLT-1 and 100 nM biAb, relative to free FVIIa",[1],13.9 fold
same,Kd,[2],75 nM
same,Kd,[3],0.06 nM
same,Kd,[4],75 nM
same,Kd,[5],75 nM
B2,"Stimulation (fold): FXa generated by FVIIa with lipidated TLT-1 and 100 nM biAb, relative to free FVIIa",[1],18.7 fold
same,Kd,[2],19 nM
same,Kd,[3],0.06 nM
same,Kd,[4],19 nM
same,Kd,[5],19 nM
B3,"Stimulation (fold): FXa generated by FVIIa with lipidated TLT-1 and 100 nM biAb, relative to free FVIIa",[1],29.2 fold
same,"Stimulation (fold): FXa generated by FVIIa with lipidated TLT-1 and 100 nM biAb, relative to free FVIIa",[6],29.2 fold
same,Kd,[2],2.9 nM
same,Kd,[3],0.06 nM
same,Kd,[4],2.9 nM
same,Kd,[5],2.9 nM
B4,"Stimulation (fold): FXa generated by FVIIa with lipidated TLT-1 and 100 nM biAb, relative to free FVIIa",[1],11.1 fold
same,Kd,[2],320 nM
same,Kd,[3],0.06 nM
same,Kd,[4],320 nM
same,Kd,[5],320 nM
